# From IntAct's records for PubMed 25982527
# B1: Mitogen-activated protein kinase kinase kinase 3 (Homo sapiens), Q99759 (parent)
# chain: MDEQEALNSIMNDLVALQMNRRHRMPGYETMKNKDTGHSNRQSDVRIKFEHNGERRIIAFSRPVKYEDVEHKVTTVFGQPLDLHYMNNELSILLKNQDDLDKAIDILDRSSSMKSLRILLLSQDRNHNSSSPHSGVSRQVRIKASQSAGDINTIYQPPEPRSRHLSVSSQNPGRSSPPPGYVPERQQHIARQGSYTSINSEGEFIPETSEQCMLDPLSSAENSLSGSCQSLDRSADSPSFRKSRMSRAQSFPDNRQEYSDRETQLYDKGVKGGTYPRRYHVSVHHKDYSDGRRTFPRIRRHQGNLFTLVPSSRSLSTNGENMGLAVQYLDPRGRLRSADSENALSVQERNVPTKSPSAPINWRRGKLLGQGAFGRVYLCYDVDTGRELASKQVQFDPDSPETSKEVSALECEIQLLKNLQHERIVQYYGCLRDRAEKTLTIFMEYMPGGSVKDQLKAYGALTESVTRKYTRQILEGMSYLHSNMIVHRDIKGANILRDSAGNVKLGDFGASKRLQTICMSGTGMRSVTGTPYWMSPEVISGEGYGRKADVWSLGCTVVEMLTEKPPWAEYEAMAAIFKIATQPTNPQLPSHISEHGRDFLRRIFVEARQRPSAEELLTHHFAQLMY
# Variants of: B1
# Conditions: with CCM2, Q9BSQ5-1
# Sequence of CCM2, Q9BSQ5-1 (Q9BSQ5 whole entry): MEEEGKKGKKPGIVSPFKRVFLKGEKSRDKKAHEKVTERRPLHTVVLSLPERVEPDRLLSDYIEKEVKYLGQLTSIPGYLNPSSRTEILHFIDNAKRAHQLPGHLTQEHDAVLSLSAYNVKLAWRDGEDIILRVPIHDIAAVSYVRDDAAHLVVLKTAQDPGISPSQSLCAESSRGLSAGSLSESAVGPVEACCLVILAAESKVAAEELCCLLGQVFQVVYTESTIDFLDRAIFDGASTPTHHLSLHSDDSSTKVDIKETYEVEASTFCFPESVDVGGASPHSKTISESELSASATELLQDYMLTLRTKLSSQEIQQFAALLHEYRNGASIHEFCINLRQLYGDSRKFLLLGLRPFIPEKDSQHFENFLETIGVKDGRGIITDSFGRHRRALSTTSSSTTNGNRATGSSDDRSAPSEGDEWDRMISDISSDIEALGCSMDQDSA
row,effect of a mutation on the interaction,Variant
1,disrupting interaction strength,L14D
2,disrupting interaction strength,L17D

# Second part, the variant before the results:
row,Variant,effect of a mutation on the interaction
1,I10D,disrupting interaction strength
2,L7D,disrupting interaction strength
